Patent US20220288223

How the values were obtained:
[1] = target: RACPP with substrate PLGC(me)AG
[2] = target: RACPP with substrate TIAHLA
[3] = target: RACPP with substrate SYPYKY
[4] = target: RACPP with substrate PLGLEEA
[5] = target: RACPP with substrate TLSLEH
[6] = target: RACPP with substrate GVAYSGA
[7] = target: RACPP with substrate KLRFSQK
[8] = target: RACPP with substrate Nle-TPRSFL
[9] = target: RACPP with substrate RLQLK(Ac)L
[10] = target: RACPP with substrate YGRAAA
[11] = target: RACPP with substrate TGRAAA

B1: MMP-12 (protein)
chain: GPVWRKHYITYRINNYTPDMNREDVDYAIRKAFQVWSNVTPLKFSKINTGMADILVVFARGAHGDFHAFDGKGGILAHAFGPGSGIGGDAHFDEDEFWTTHSGGTNLFLTAVHEIGHSLGLGHSSDPKAVMFPTYKYVDINTFRLSADDIRGIQSLYGDPKENQRLPNPDNSEPALCDPNLSFDAVTTVGNKIFFFKDRFFWLKVSERPKTSVNLISSLWPTLPSGIEAAYEIEARNQVFLFKDDKYWLISNLRPEPNYPKSIHSFGFPNFVKKIDAAVFNPRFYRTYFFVDNQYWRYDERRQMMDPGYPKLITKNFQGIGPKIDAVFYSKNKYYYFFQGSNQFEYDFLLQRITKTLKSNSWFGC
- Kcat/Km [1]: 9170
- Kcat/Km [2]: 2320
- Kcat/Km [3]: 14000
- Kcat/Km [4]: 10500
- Kcat/Km [5]: 1400

B2: CathepsinK (protein)
chain: APDSVDYRKKGYVTPVKNQGQCGSCWAFSSVGALEGQLKKKTGKLLNLSPQNLVDCVSENDGCGGGYMTNAFQYVQKNRGIDSEDAYPYVGQEESCMYNPTGKAAKCRGYREIPEGNEKALKRAVARVGPVSVAIDASLTSFQFYSKGVYYDESCNSDNLNHAVLAVGYGIQKGNKHWIIKNSWGENWGNKGYILMARNKNNACGIANLASFPKM
- Kcat/Km [6]: 1070
- Kcat/Km [1]: 2640
- Kcat/Km [7]: 7440
- Kcat/Km [8]: 2350
- Kcat/Km [2]: 833
- Kcat/Km [9]: 2870
- Kcat/Km [4]: 787
- Kcat/Km [5]: 497

B3: Chymase (protein)
chain: IIGGTECKPHSRPYMAYLEIVTSNGPSKFCGGFLIRRNFVLTAAHCAGRSITVTLGAHNITEEEDTWQKLEVIKQFRHPKYNTSTLHHDIMLLKLKEKASLTLAVGTLPFPSQFNFVPPGRMCRVAGWGRTGVLKPGSDTLQEVKLRLMDPQACSHFRDFDHNLQLCVGNPRKTKSAFKGDSGGPLLCAGVAQGIVSYGRSDAKPPAVFTRISHYRPWINQILQAN
- Kcat/Km [6]: 48100
- Kcat/Km [7]: 1970
- Kcat/Km [2]: 11500
- Kcat/Km [3]: 16400
- Kcat/Km [5]: 2270

B4: MMP-2 (protein)
chain: YNFFPRKPKWDKNQITYRIIGYTPDLDPETVDDAFARAFQVWSDVTPLRFSRIHDGEADIMINFGRWEHGDGYPFDGKDGLLAHAFAPGTGVGGDSHFDDDELWTLGEGQVVRVKYGNADGEYCKFPFLFNGKEYNSCTDTGRSDGFLWCSTTYNFEKDGKYGFCPHEALFTMGGNAEGQPCKFPFRFQGTSYDSCTTEGRTDGYRWCGTTEDYDRDKKYGFCPETAMSTVGGNSEGAPCVFPFTFLGNKYESCTSAGRSDGKMWCATTANYDDDRKWGFCPDQGYSLFLVAAHEFGHAMGLEHSQDPGALMAPIYTYTKNFRLSQDDIKGIQELYGASPDIDLGTGPTPTLGPVTPEICKQDIVFDGIAQIRGEIFFFKDRFIWRTVTPRDKPMGPLLVATFWPELPEKIDAVYEAPQEEKAVFFAGNEYWIYSASTLERGYPKPLTSLGLPPDVQRVDAAFNWSKNKKTYIFAGDKFWRYNEVKKKMDPGFPKLIADAWNAIPDNLDAVVDLQGGGHSYFFKGAYYLKLENQSLKSVKFGSIKSDWLGC
- Kcat/Km [1]: 36400
- Kcat/Km [2]: 16200
- Kcat/Km [10]: 426
- Kcat/Km [4]: 2420
- Kcat/Km [5]: 11400

B5: Plasmin (protein)
chain: KVYLSECKTGNGKNYRGTMSKTKNGITCQKWSSTSPHRPRFSPATHPSEGLEENYCRNPDNDPQGPWCYTTDPEKRYDYCDILECEEECMHCSGENYDGKISKTMSGLECQAWDSQSPHAHGYIPSKFPNKNLKKNYCRNPDRELRPWCFTTDPNKRWELCDIPRCTTPPPSSGPTYQCLKGTGENYRGNVAVTVSGHTCQHWSAQTPHTHNRTPENFPCKNLDENYCRNPDGKRAPWCHTTNSQVRWEYCKIPSCDSSPVSTEQLAPTAPPELTPVVQDCYHGDGQSYRGTSSTTTTGKKCQSWSSMTPHRHQKTPENYPNAGLTMNYCRNPDADKGPWCFTTDPSVRWEYCNLKKCSGTEASVVAPPPVVLLPDVETPSEEDCMFGNGKGYRGKRATTVTGTPCQDWAAQEPHRHSIFTPETNPRAGLEKNYCRNPDGDVGGPWCYTTNPRKLYDYCDVPQCAAPSFDCGKPQVEPKKCPGRVVGGCVAHPHSWPWQVSLRTRFGMHFCGGTLISPEWVLTAAHCLEKSPRPSSYKVILGAHQEVNLEPHVQEIEVSRLFLEPTRKDIALLKLSSPAVITDKVIPACLPSPNYVVADRTECFITGWGETQGTFGAGLLKEAQLPVIENKVCNRYEFLNGRVQSTELCAGHLAGGTDSCQGDSGGPLVCFEKDKYILQGVTSWGLGCARPNKPGVYVRVSRFVTWIEGVMRNN
- Kcat/Km [11]: 4160
- Kcat/Km [7]: 6510
- Kcat/Km [8]: 13000
- Kcat/Km [10]: 7720
- Kcat/Km [3]: 19400
